*: point of attachment. Biotin = O=C1N[C@H]2[C@H](CS[C@H]2CCCCC(=O)*)N1
Tests used:
SEC = biological target: the molecule itself; test: SEC
[1] = biological target: MBP-CLR ECD-H6:RAMP2 ECD-H6 complex (recombinant AM receptor ECD complex) (human, UniProt Q16602 29-144; O60895 36-140); test: AlphaScreen or HTRF
Chain of MBP-CLR ECD-H6:RAMP2 ECD-H6 complex (recombinant AM receptor ECD complex) (Q16602 29-144, one chain of several): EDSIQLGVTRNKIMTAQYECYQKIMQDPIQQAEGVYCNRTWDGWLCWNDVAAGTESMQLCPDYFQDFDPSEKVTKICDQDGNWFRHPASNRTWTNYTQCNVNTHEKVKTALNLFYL

binding result [1] | Binder | stoichiometry N (SEC)
 | RAMP2 ECD-H6 (RAMP2.36-140-H6), isolated extracellular domain of receptor activity modifying protein 2 (domain or fragment, human, UniProt O60895 36-140, looked up) NPHEALAQPLPTTGTPGSEGGTVKNYETAVQFCWNHYKDQMDPIEKDWCDWAMISRPYSTLRDCLEHFAELFDLGFPNPLAERIIFETHQIHFANCSLVQPTFSD | 3
binds | Biotin-GTATVQKLAHQIYQFTDKDKDNVAPRSKISPQGY-NH2 (SMILES CC[C@H](C)[C@H](NC(=O)[C@H](CCC(N)=O)NC(=O)[C@H](Cc1c[nH]cn1)NC(=O)[C@H](C)NC(=O)[C@H](CC(C)C)NC(=O)[C@H](CCCCN)NC(=O)[C@H](CCC(N)=O)NC(=O)[C@@H](NC(=O)[C@@H](NC(=O)[C@H](C)NC(=O)[C@@H](NC(=O)CNC(=O)CCCC[C@@H]1SC[C@@H]2NC(=O)N[C@@H]21)[C@@H](C)O)[C@@H](C)O)C(C)C)C(=O)N[C@@H](Cc1ccc(O)cc1)C(=O)N[C@@H](CCC(N)=O)C(=O)N[C@@H](Cc1ccccc1)C(=O)N[C@H](C(=O)N[C@@H](CC(=O)O)C(=O)N[C@@H](CCCCN)C(=O)N[C@@H](CC(=O)O)C(=O)N[C@@H](CCCCN)C(=O)N[C@@H](CC(=O)O)C(=O)N[C@@H](CC(N)=O)C(=O)N[C@H](C(=O)N[C@@H](C)C(=O)N1CCC[C@H]1C(=O)N[C@@H](CCCNC(=N)N)C(=O)N[C@@H](CO)C(=O)N[C@@H](CCCCN)C(=O)N[C@H](C(=O)N[C@@H](CO)C(=O)N1CCC[C@H]1C(=O)N[C@@H](CCC(N)=O)C(=O)NCC(=O)N[C@@H](Cc1ccc(O)cc1)C(N)=O)[C@@H](C)CC)C(C)C)[C@@H](C)O) [B-AM(19–52)NH2[C21A]] | 
